Here are results for two molecules from patent US20250304913A1.

For assay [1], the target named is OT-I TCR. As to the kind of experiment: cell-based or functional assay.
Assay [2] concerns the target OT-I TCR. Put plainly: cell-based or functional assay. This is another data set of the same source.

In the assay with OT-I TCR [1], “OVA-MHCI Bait-CD3Zeta Fully Live CAR (peptide-MHC)” yielded a proportion of surviving OT-I cells after 18 hours of co-culture of 32.1%, a proportion of surviving OT-I cells after 36 hours of co-culture of 19.5% and a proportion of surviving OT-I cells after 60 hours of co-culture of 0.69%.

B1: OVA-MHCI Bait-SIINFEKL CAR (peptide-MHC)
chain: SIINFEKLGGGGSGGGGSGGGGSIQKTPQIQVYSRHPPENGKPNILNCYVTQFHPPHIEIQMLENGKKIPKVEMSDMSFSKDWSFYILAHTEFTPTETDTYACRVKHASMAEPKTVYWDRDMGGGGSGGGGSGGGGSGGGGSGPHSLRYFVTAVSRPGLGEPRYMEVGYVDDTEFVRFDSDAENPRYEPRARWMEQEGPEYWERETQKAKGNEQSFRVDLRTLLGYYNQSKGGSHTIQVISGCEVGSDGRLLRGYQQYAYDGCDYIALNEDLKTWTAADMAALITKHKWEQAGEAERLRAYLEGTCVEWLRRYLKNGNATLLRTDSPKAHVTHHSRPEDKVTLRCWALGFYPADITLTWQLNGEELIQDMELVETRPAGDGTFQKWASVVVPLGKEQYYTCHVYHQGLPEPLTLRWEIEFMYPPPYLDNERSNGTIIHIKEKHLCHTQSSPKLFWALVVVAGVLFCYGLLVTVALCVIWTNSRRNRGGQSDYMNMTPRRPGLTRKPYQPYAPARDFAAYRPRAKFSRSAETAANLQDPNQLFNELNLGRREEFDVLEKKRARDPEMGGKQQRRRNPQEGVYNALQKDKMAEAYSEIGTKGERRRGKGHDGLFQGLSTATKDTFDALHMQTLAPR
With B1, in the assay with OT-I TCR [2], the IFN-gamma positive bait CAR T cells in the presence of OT-I target cells was determined as 11.4%, the IL-2 positive bait CAR T cells in the presence of OT-I cells stood at 14.9%, the OT-I cells remaining in the population after 48 hours of co-culture (competitive survival assay) is 5.01% and the activation of bait CAR T cells (expression of CD107a) in the presence of OT-I T cells was 24.8%. In the assay with OT-I TCR [2], this molecule returned a degranulation of OT-I T cells (CD107a-positive) in co-culture with bait CAR T cells of 80.4%.
